Experimental data from publication PMC7710018, “Restoration of motor learning in a mouse model of Rett syndrome following long-term treatment with a novel small-molecule activator of TrkB” (Disease Models & Mechanisms, 2020).

Key:
3T3-TrkA cells = test: NIH-3T3 cell survival (ViaLight); format: cell-based, mouse; conditions: serum-free medium, 72-96 h, PTX-BD4-3 1000 nM
Protocol: (§1) Fig. 2. PTX-BD4-3 promotes cell survival preferentially through TrkB. (A-D) Neurotrophin receptor-expressing NIH-3T3 cells were incubated in culture medium (CM) alone or in medium plus either the indicated neurotrophins (BDNF, NGF, NT-3) or PTX-BD4-3 or its parent compound LM22A-4 for 72-96 h, after which survival was measured using the ViaLight assay. […] Scale bar: 10 μm. (B) Survival dose-response curves for PTX-BD4-3 and LM22A-4 in 3T3-TrkB cells. ^§P≤0.001 compared to CM alone. (C) Representative images of 3T3-TrkA, 3T3-TrkC and 3T3-p75 cells grown in the presence of CM alone, CM+neurotrophin or CM+PTX-BD4-3. Scale bar: 10 μm. NGF, NT-3 and BDNF served as positive controls for 3T3-TrkA, 3T3-TrkC and 3T3-p75 cells, respectively. (D) PTX-BD4-3 (1000 nM) had no effect on survival of 3T3-TrkA, 3T3-TrkC or 3T3-p75 cells compared to medium alone. *P≤0.05, ***P≤0.001 compared to CM alone. For each determination in B and D, n=10-32 wells derived from four to five independent experiments. Statistical significance was determined by one-way ANOVA with Dunnett's post hoc multiple comparison test. (E,F) […] protein was extracted from human cementoblast-like cell (HCEM) cultures treated with either culture medium alone, BDNF, LM22A-4 or PTX-BD4-3, immunoprecipitated with anti-TrkB antibody and then probed sequentially on western blots with anti-Shc and anti-TrkB antibody. The ratio of Shc to TrkB in treated cultures was normalized and compared to control (CM alone) using Kruskal-Wallis ANOVA followed by Dunn's multiple comparisons test (*P≤0.05, ^§P≤0.001). n=13 independent experiments, and each protein sample was run on duplicate western blots and the normalized values averaged. RLUs, relative light units.
(§2) Mouse NIH-3T3 cells expressing TrkA (NIH-3T3-TrkA) were provided by Dr William Mobley (University of California at San Diego, San Diego, CA, USA), and NIH-3T3 cells expressing TrkB (NIH-3T3-TrkB) or TrkC (NIH-3T3-TrkC) were provided by Dr David Kaplan (University of Toronto, Toronto, ON, Canada). Cells were propagated in Dulbecco's modified Eagle medium (DMEM) supplemented with 10% fetal bovine serum (FBS; Invitrogen) and 200-400 µg/ml Geneticin. Cells were seeded into 24-well plates (30,000 cells/well) and cultured in medium consisting of 50% PBS and 50% DMEM without supplements. Following exposure to BDNF (20 ng/ml, 0.7 nM) or 10-1000 nM LM22A-4 or PTX-BD4-3 for 72-96 h, cells were suspended in 50 µl lysis buffer, transferred to white, opaque 96-well culture plates and survival was measured using the ViaLight Assay (Lonza Group, Rockland, ME, USA).

3T3-TrkC cells = test: NIH-3T3 cell survival (ViaLight); format: cell-based, mouse; conditions: serum-free medium, 72-96 h, PTX-BD4-3 1000 nM
Protocol: as §1, §2

3T3-TrkB cells = test: NIH-3T3 cell survival (ViaLight); format: cell-based, mouse; conditions: serum-free medium, 72-96 h, ViaLight; compounds 10-1000 nM dose-response, BDNF 20 ng/ml
Protocol: as §1, §2

3T3-p75 cells = test: NIH-3T3 cell survival (ViaLight); format: cell-based, mouse; conditions: serum-free medium, 72-96 h, PTX-BD4-3 1000 nM
Protocol: as §1, §2

[1] = tested on: 3T3 parent line, which does not express Trk receptors; test: NIH-3T3 cell survival; format: cell-based, mouse; conditions: serum-free medium
TrkB = test: Shc adaptor protein recruitment to TrkB in HCEMs (IP/western blot); format: cell-based, human; conditions: 1 h, compounds 1000 nM, BDNF 0.7 nM
Excerpt: Fig. 2. […] Scale bar: 10 μm. […] Scale bar: 10 μm.

[2] = tested on: E16 mouse hippocampal neurons; test: Hippocampal neuron survival (ViaLight assay and Tuj1-positive cell counts); format: cell-based; conditions: compounds 1000 nM, BDNF 20 ng/ml; vs control antibody
Excerpt: To further confirm that PTX-BD4-3 promotes biologically relevant activity through TrkB, we examined the effect of PTX-BD4-3 on survival of cultured hippocampal neurons, using two different methods (Fig. 3A-C). […] It would be expected that although there is a correlation between survival status and mitochondrial metabolic status, one could have some degree of variability in metabolic function for a given level of cell survival. […] Because the plateau effect of PTX-BD4-3 on survival was observed between 500 nM and 1000 nM, we chose 1000 nM as a standard concentration for subsequent mechanistic studies.
Fig. 3. […] (A) Fluorescence photomicrographs (original magnification, ×40) of Tuj1-immunostained E16 mouse hippocampal neuronal cultures treated with culture medium (CM) alone, BDNF, LM22A-4 or PTX-BD4-3 for 48 h. Scale bar: 10 μm. (B) Neuron survival dose-response curves for LM22A-4 and PTX-BD4-3 were generated using the ViaLight assay; data were normalized to survival achieved with 20 ng/ml (∼0.7 nM) BDNF and compared with wells receiving culture medium medium (CM) alone. n=10-32 wells per group derived from four to five independent experiments. (C) Survival analysis of hippocampal neurons treated with either 20 ng/ml BDNF, 500 nM or 1000 nM LM22A-4 or 500 nM or 1000 nM PTX-BD4-3 for 48 h. Tuj1-positive cells counts were normalized to the survival achieved with BDNF and compared with wells treated with […]. n=32-40 wells per group derived from six independent experiments. Statistical significance in B and C was determined by one-way ANOVA with Dunnett's post hoc multiple comparison tests. *P≤0.05, ^§P≤0.001 compared to control (CM). (D) Survival of hippocampal neurons treated with CM, 20ng/ml BDNF (B), 1000 nM LM22A-4 or 1000 nM PTX-BD4-3 with or without anti-TrkB antibody (Bab) or non-immune serum (non). n=37-42 wells per group derived from five independent experiments. *P≤0.05, **P≤0.01, ***P≤0.001 (non vs Bab), Mann-Whitney test; *P≤0.05, ^ψP≤0.01, ^§P≤0.001 (compared to CM), one-way ANOVA with Dunnett's post hoc multiple comparison test.
Hippocampal neuron cultures were prepared from E16 CF1 mouse fetuses as described previously ([Yang et al., 2006]). Under the low-density conditions used here, neuronal survival is dependent, in part, on addition of exogenous neurotrophins ([Yang et al., 2008]; [Walter et al., 2011]). LM22A-4 and PTX-BD4-3 were dissolved in water at a stock concentration of 10 mM prior to dilution (1:10,000) in culture medium. Cell survival following a 48-h exposure to BDNF, LM22A-4 or PTX-BD4-3 was quantified by either counting β-tubulin III-positive cell bodies ([Massa et al., 2006]; [Walter et al., 2011]) or by the ViaLight Assay described above.

Molecule: NGF: neurotrophin, cognate ligand and positive control for 3T3-TrkA cells
- survival of 3T3-TrkA cells (3T3-TrkA cells): supported survival

B1: NT-3: neurotrophin, cognate ligand and positive control for 3T3-TrkC cells (protein, UniProt P20783 139-257, looked up)
Neurotrophin-3: YAEHKSHRGEYSVCDSESLWVTDKSSAIDIRGHQVTVLGEIKTGNSPVKQYFYETRCKEARPVKNGCRGIDDKHWNSQCKTSQTYVRALTSENNKLVGWRWIRIDTSCVCALSRKIGRT
- survival of 3T3-TrkC cells (3T3-TrkC cells): supported survival

B2: BDNF: Recombinant brain-derived neurotrophic factor, cognate ligand of TrkB; positive control (protein, UniProt P23560 19-247, looked up)
Neurotrophic factor BDNF …: APMKEANIRGQGGLAYPGVRTHGTLESVNGPKAGSRGLTSLADTFEHVIEELLDEDQKVRPNEENNKDADLYTSRVMLSSQVPLEPPLLFLLEEYKNYLDAANMSMRVRRHSDPARRGELSVCDSISEWVTAADKKTAVDMSGGTVTVLEKVPVSKGQLKQYFYETKCNPMGYTKEGCRGIDKRHWNSQCRTTQSYVRALTMDSKKRIGWRFIRIDTSCVCTLTIKRGR
- survival of 3T3-TrkB cells (3T3-TrkB cells): supported survival
- survival of 3T3-p75 cells (3T3-p75 cells): respond
- survival of the 3T3 parent line [1]: did not support survival
- Shc recruitment to TrkB (ratio of Shc to TrkB) (TrkB): promoted Shc recruitment to TrkB
- neurotrophic activity in the presence of function-blocking anti-TrkB^ECD antibody [2]: reduction
